The record followed here is US20140314780A1, “Compositions Using Antibodies Directed to GPNMB and Uses Thereof” (Celldex Therapeutics, Inc., priority 2008, published 2014).

The target in the assay is T1, GPNMB (Homo sapiens, UniProt Q14956).
T1 construct: V5His; made in house
T1 sequence (Q14956 23-492): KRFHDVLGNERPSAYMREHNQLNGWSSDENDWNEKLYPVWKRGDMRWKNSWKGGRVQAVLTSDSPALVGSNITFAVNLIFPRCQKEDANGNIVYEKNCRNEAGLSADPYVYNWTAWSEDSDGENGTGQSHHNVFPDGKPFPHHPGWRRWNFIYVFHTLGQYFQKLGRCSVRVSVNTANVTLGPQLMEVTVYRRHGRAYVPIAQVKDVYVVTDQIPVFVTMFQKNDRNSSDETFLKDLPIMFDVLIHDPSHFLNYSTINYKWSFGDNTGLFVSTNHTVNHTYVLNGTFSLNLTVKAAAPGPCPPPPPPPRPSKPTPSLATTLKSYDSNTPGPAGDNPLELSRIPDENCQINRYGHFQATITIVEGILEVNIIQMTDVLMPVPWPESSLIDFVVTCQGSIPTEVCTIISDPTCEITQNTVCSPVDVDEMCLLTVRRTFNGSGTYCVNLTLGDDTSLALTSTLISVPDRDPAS
The assay is described as follows: Epitope binning of anti-GPNMB antibodies (competitive binding). The settings on record: six anti-GPNMB antibodies, three bins. From the text: Certain antibodies, described herein were binned in accordance with the protocol described in U.S. Patent Application Publication No. 20030157730. […] Competitive binding by antibodies from […] supports antibody specificity for similar or adjacent epitopes. Non competitive binding supports antibody specificity for unique epitopes.
Three bins were created to further test the binding of six anti-GPNMB antibodies. Bin 1 included GPNMB antibodies (1.2.1), (1.10.1), and (2.22.1). Bin 2 included GPNMB antibodies (2.3.1) and (1.15.1), and Bin 3 included GPNMB antibody (2.10.1). The results of the binning assays are provided below in Tables 4 and 5.

B1: Mab2.22.1: human anti-GPNMB antibody; VH SEQ ID NO: 164, VL SEQ ID NO: 173 (antibody, listed as Homo sapiens, V domains shown)
VH: QVQLEQSGPGLVKPSQNLSLTCTVSGGSISSGGYFWSWIRQHPGKGLEWIGYIYYSGNTYYNPSLKSRVTISVDTSKNQFSLKLSSVTAADTAVYYCARDYYYDTSGFSYRYDWYYGMDVWGQGTTVTVSSA
VL: DIQLTQSPSSLSASVGDRVTITCRASQGIRNDLGWYQQKPGKAPKRLIYAASSLQNGVPSRFSGSGSGTEFTLTISSLQPEDFATYYCLQHNTYPAFGQGTKVEIKR
As for B1, the epitope bin entry was “Bin 1”.
